B1: huPrP23-231 (receptor)
chain: not shown
B2: ICSM-18 (antibody, V domains shown)
VH: EVQLQQSGPELVKPGSSVKISCKASRNTFTDYNLDWVKQSHGKTLEWIGNVYPNNGVTGYNQKFRGKATLTVDKSSSTAYMELHSLTSEDSAVYYCALYYYDVSYWGQGTLVTVSA
VL: QIVLTQSPAIMSASPGEKVTMTCSASSSVSYMHWYQQKSGTSPKRWIYDTSKLASGVPARFSGSGSGTSYSLTISSMEAEDAATYFCHQWRSNPYTFGGGTKLEIKR

What was measured:
[1] = target: A[beta]-derived diffusible ligands (ADDL) prepared from A[beta]1-42 (UniProt P05067 672-713)
[2] = target: bADDL preparation from biotinylated A[beta]1-42 (bA[beta]1-42) (UniProt P05067 672-713)
huPrP23-231 = target: B1

Row | Binder | Kd [1] | Kd [2] | fold tighter binding than huPrP91-231 [2] | Kd (huPrP23-231) | Ki (huPrP23-231)
1 | B1 | 100 nM | 82 nM | 100 fold | – | –
2 | B2 | – | – | – | ~10 nM | ~20 nM
